Consider three molecules from PMC6936856.

Changes are numbered by the printed parent chain.

Test [1] deals with JR-FL Env gp160 on pseudovirus (HIV-1 (JR-FL)) (UniProt Q75760).
Test [2] shares this target. The source holds these as a separate data set.

B1: DH501 IgG1 (antibody, V domains shown)
VH: QVTLKEFGPALVKPTQPLTLTCSFSGFSLRSSDTAVVWIRQPPGKALEWLAAIYWDDVEHINPSLKSRLSISKDSPNSLVVLTMANMDPVDTATYYCGRVRFVSGGYYTDRIDSWGPGLLVTVSS
VL: QSVLTQPPSVSGAPGQRVTISCAGTKSNIGDCSVSWYQQLPGATPRLLIYQNNNRPSGVSDRFSGSKSGTSASLAITGLQTEDEADYFCLSYDTSFSGWRFGGGTRLTVL
B1 registered an IC50 of neutralisation of kifunensine-treated (Man9GlcNAc2-enriched) JR-FL pseudovirus, TZM-bl cells in test [1] of 0.09 µg/mL.

B2: DH501 H/UCA L chimeric antibody (antibody, V domains shown)
VH: B1 VH
VL: QSVLTQPPSVSGAPGQRVTISCTGSSSNIGGYYVSWYQQLPGTTPKLLIYQDNKRPSGVSDRFSGSKSGTSASLTITGLQTEDEADYYCLSYDTSFSGWRFGGGTRLTVL
B2 registered an IC50 of neutralisation of kifunensine-treated (Man9GlcNAc2-enriched) JR-FL pseudovirus, TZM-bl cells in test [1] of 0.06 µg/mL.

B3: DH501 with HFWR4 somatic mutations reverted to the UCA sequence (antibody, V domains shown)
VH: B1 VH with P117Q, L119V
VL: B1 VL
Molecule B3 displayed an IC50 of neutralisation of kifunensine-treated JR-FL, TZM-bl cells in test [2] of 4.34 µg/mL.
